Reference: article PMC10959120

How the values were obtained:
RAB-GDI1 = RAB-GDI1 (UniProt P31150); assay: GFP-Trap co-IP, immunoblot; conditions: reference: wild type; sites T86
[1] = molecular target: MADD (DENN/MADD, RAB3-GEP) (UniProt Q8WXG6); assay: GFP-Trap co-IP, HA immunoblot; conditions: reference: wild type; sites T86

binding against the reference (RAB-GDI1): stronger
binding against the reference [1]: stronger
Substance: RAB3A (from UniProt P20336) T86A
